Test results taken from article PMC7614687, “Modulation of the substrate specificity of the kinase PDK1 by distinct conformations of the full-length protein*” (Science signaling, 2023).
Each block holds one binder with its values, some of them ahead of it. No end group written: not given here. *: point of attachment. Biotin = O=C1N[C@H]2[C@H](CS[C@H]2CCCCC(=O)*)N1

Columns and labels:
His-PDK1_(1-556) = biological target: T1, His-PDK1_(1-556) (UniProt O15530 1-556); assay: AlphaScreen or HTRF; His-PDK1_(1-556) and GST-PDK1_(360-556); nickel chelate-coated acceptor beads and GSH-coated donor beads; standard buffer 50 mM Tris-HCl pH 7.4, 100 mM NaCl, 2 mM DTT, 0.01% Tween-20, 0.1% BSA; 60 min at room temperature; conditions: both partners purified
T1 construct: also called full-length PDK1; PDK1 FL; source: Sf9 insect cells (Bac-to-Bac baculovirus), purified (Ni-NTA, gel filtration); not shown: His, N-terminal, kept; myc, N-terminal, kept
T1 sequence (looked up): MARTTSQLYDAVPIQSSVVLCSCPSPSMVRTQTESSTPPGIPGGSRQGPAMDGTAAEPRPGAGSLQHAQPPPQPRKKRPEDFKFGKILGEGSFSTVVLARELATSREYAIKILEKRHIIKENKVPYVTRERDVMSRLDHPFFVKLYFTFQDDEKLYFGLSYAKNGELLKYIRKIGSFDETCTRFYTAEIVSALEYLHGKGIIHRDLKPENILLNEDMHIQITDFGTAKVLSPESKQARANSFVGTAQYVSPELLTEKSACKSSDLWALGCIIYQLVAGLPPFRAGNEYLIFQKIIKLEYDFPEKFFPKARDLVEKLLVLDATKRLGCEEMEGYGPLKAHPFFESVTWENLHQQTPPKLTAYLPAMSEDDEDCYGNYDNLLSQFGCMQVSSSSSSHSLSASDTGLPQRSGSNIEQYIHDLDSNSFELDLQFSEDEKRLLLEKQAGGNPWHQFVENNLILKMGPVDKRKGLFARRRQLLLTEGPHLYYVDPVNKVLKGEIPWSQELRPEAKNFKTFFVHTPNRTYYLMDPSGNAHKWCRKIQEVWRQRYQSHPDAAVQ

GST-PDK1_(1-556) = biological target: T2, GST-PDK1_(1-556) (UniProt O15530 1-556); assay: AlphaScreen or HTRF; GST-PDK1_(1-556) (150 nM) and biotin-GS-022; anti-GST coated acceptor beads and streptavidin-coated donor beads; standard buffer; with or without HYG8; conditions: both partners purified
T2 construct: source: HEK293 cells, transient transfection of pEBG2T plasmid, purified, dialyzed to remove GSH
T2 sequence (looked up): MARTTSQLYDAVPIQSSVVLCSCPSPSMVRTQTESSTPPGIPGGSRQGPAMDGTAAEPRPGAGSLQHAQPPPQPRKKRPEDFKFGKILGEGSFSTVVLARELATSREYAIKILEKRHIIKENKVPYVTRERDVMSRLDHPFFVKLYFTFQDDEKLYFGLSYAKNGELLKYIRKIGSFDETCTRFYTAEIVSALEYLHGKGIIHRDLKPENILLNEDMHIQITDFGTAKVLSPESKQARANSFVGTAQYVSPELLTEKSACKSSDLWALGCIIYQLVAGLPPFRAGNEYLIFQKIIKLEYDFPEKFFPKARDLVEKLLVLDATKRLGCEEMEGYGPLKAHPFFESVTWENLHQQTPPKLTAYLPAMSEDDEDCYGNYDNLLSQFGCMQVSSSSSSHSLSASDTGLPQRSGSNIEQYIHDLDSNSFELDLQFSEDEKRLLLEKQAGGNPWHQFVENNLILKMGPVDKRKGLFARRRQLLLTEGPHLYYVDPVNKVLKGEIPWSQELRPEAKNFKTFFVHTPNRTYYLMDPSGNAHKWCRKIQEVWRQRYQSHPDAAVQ

[1] = biological target: the molecule itself; assay: STORM-based single-molecule fluorescence intensity; TMR-Star-labelled SNAP-PDK1 diluted and adsorbed on PDDA-coated slides; 50 mM Tris-HCl pH 7.4, 100 mM NaCl, 1 mM DTT; dimers told from monomers by spot intensity

binding result (His-PDK1_(1-556)): binds
B1: GST-PDK1_(360-556) (domain or fragment, UniProt O15530 360-556, looked up)
chain: AYLPAMSEDDEDCYGNYDNLLSQFGCMQVSSSSSSHSLSASDTGLPQRSGSNIEQYIHDLDSNSFELDLQFSEDEKRLLLEKQAGGNPWHQFVENNLILKMGPVDKRKGLFARRRQLLLTEGPHLYYVDPVNKVLKGEIPWSQELRPEAKNFKTFFVHTPNRTYYLMDPSGNAHKWCRKIQEVWRQRYQSHPDAAVQ
notes: Cloned into the BamHI-KpnI sites of pEBG2T; also called GST-PDK1-Linker-PH; GST-linker-PH domain; source: HEK293 cells, transient transfection of pEBG2T plasmid, purified, dialyzed to remove GSH

binding result (GST-PDK1_(1-556)): binds
B2: biotin-GS-022 (peptide)
peptide: Biotin-RRRQFSLRRKAK
notes: synthetic peptide substrate of PDK1; source: synthetic peptide (Pepscan)

B3: SNAP-PDK1_(50-556) (enzyme, UniProt O15530 50-556, looked up)
chain: AMDGTAAEPRPGAGSLQHAQPPPQPRKKRPEDFKFGKILGEGSFSTVVLARELATSREYAIKILEKRHIIKENKVPYVTRERDVMSRLDHPFFVKLYFTFQDDEKLYFGLSYAKNGELLKYIRKIGSFDETCTRFYTAEIVSALEYLHGKGIIHRDLKPENILLNEDMHIQITDFGTAKVLSPESKQARANSFVGTAQYVSPELLTEKSACKSSDLWALGCIIYQLVAGLPPFRAGNEYLIFQKIIKLEYDFPEKFFPKARDLVEKLLVLDATKRLGCEEMEGYGPLKAHPFFESVTWENLHQQTPPKLTAYLPAMSEDDEDCYGNYDNLLSQFGCMQVSSSSSSHSLSASDTGLPQRSGSNIEQYIHDLDSNSFELDLQFSEDEKRLLLEKQAGGNPWHQFVENNLILKMGPVDKRKGLFARRRQLLLTEGPHLYYVDPVNKVLKGEIPWSQELRPEAKNFKTFFVHTPNRTYYLMDPSGNAHKWCRKIQEVWRQRYQSHPDAAVQ
modifications: SNAP-Cell TMR-Star label on the SNAP-tag
notes: also called TMR-SNAP-PDK1
binding result [1]: binds
